# Measured values from IntAct's records for PubMed 23727230.
# Target: prp8_yeast PRP8 (UniProt P33334)
# Sequence (P33334 whole entry): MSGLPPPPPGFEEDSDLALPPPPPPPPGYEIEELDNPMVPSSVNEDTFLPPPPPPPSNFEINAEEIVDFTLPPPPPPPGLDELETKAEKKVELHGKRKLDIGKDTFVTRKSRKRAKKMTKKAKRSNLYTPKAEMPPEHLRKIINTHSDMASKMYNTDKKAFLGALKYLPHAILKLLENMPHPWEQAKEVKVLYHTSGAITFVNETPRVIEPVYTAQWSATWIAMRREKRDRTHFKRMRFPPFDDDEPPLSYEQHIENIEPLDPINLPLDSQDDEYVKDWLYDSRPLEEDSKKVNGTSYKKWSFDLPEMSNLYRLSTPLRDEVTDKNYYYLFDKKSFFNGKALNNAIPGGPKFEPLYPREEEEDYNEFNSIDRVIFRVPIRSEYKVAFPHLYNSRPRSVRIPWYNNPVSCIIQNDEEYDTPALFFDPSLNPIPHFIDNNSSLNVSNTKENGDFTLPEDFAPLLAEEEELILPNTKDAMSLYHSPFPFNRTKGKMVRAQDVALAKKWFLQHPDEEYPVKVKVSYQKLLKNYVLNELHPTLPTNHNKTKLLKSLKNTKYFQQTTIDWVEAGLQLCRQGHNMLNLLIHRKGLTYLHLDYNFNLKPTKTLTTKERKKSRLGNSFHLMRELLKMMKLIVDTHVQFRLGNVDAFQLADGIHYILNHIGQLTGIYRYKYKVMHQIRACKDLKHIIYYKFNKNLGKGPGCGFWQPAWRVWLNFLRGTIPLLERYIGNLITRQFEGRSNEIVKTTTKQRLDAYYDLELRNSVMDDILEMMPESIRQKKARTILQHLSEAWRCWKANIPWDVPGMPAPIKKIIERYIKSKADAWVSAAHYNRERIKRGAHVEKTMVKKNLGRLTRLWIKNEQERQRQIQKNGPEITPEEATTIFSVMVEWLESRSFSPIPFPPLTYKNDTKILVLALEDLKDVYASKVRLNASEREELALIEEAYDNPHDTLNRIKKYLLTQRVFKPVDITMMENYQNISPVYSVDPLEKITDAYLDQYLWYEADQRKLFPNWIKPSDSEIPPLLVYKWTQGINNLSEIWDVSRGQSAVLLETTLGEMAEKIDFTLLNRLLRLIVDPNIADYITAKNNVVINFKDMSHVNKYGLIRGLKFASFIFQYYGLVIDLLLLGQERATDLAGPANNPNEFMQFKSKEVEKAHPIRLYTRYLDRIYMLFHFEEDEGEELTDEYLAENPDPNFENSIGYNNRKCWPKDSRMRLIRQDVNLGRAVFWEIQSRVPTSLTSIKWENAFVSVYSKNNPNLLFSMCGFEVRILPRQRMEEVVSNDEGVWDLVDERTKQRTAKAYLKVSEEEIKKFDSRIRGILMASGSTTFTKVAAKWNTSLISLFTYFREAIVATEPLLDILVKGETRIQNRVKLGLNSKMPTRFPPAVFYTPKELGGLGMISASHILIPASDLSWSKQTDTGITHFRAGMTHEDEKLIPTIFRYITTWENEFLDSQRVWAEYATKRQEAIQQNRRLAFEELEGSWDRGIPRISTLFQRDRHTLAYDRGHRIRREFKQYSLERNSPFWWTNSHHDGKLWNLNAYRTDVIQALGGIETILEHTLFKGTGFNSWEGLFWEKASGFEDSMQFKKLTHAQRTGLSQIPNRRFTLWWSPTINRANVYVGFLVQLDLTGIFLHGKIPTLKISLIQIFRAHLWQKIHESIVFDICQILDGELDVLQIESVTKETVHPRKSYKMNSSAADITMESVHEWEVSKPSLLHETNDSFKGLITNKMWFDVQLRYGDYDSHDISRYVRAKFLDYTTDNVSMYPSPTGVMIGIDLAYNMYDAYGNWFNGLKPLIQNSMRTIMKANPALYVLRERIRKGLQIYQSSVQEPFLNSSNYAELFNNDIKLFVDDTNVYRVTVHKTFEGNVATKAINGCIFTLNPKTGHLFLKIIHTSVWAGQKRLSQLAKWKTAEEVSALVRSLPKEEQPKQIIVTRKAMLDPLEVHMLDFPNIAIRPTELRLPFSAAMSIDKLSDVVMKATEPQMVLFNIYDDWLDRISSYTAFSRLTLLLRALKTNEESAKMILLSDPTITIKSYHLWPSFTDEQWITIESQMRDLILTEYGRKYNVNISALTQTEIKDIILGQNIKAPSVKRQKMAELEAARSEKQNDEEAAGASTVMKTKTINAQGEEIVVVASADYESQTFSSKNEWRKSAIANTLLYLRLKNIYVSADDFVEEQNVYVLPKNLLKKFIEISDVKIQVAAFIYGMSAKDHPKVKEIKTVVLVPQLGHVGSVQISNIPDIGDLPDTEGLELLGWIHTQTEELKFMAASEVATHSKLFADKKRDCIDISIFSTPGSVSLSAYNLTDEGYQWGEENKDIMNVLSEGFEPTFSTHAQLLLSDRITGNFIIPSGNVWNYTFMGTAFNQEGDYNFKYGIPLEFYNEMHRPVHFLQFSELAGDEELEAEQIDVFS
substance,measurement,value
"Pre-mRNA-splicing helicase BRR2 (Saccharomyces cerevisiae), P32639 D1247A;D1249A",effect of a mutation on the interaction,decreasing interaction strength
